Here are results for 3 molecules from patent US20100204091A1 (YEDA RESEARCH AND DEVELOPMENT, published 2010).

No end group written: not given here.

In experiment [1] the target is T1, FLAG tagged TRAF2 (UniProt Q12933 1-501).
T1 construct: For in vitro assays purified on anti-FLAG M2 beads and eluted with FLAG peptide; also called FLAG-TRAF2
T1 sequence (looked up): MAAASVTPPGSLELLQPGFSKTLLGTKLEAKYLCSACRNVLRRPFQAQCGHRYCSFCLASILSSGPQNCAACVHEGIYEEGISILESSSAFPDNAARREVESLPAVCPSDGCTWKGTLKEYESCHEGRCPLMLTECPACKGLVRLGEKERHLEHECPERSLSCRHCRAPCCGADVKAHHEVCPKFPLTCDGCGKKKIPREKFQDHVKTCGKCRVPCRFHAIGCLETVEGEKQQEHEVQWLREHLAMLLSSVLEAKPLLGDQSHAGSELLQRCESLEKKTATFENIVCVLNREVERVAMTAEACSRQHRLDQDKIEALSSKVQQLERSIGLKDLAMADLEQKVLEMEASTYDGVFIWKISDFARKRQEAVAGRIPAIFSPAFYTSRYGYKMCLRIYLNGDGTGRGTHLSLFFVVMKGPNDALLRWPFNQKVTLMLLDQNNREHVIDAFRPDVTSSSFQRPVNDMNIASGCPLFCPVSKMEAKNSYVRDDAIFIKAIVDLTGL
Nature of the experiment: co-immunoprecipitation with anti FLAG-M2 beads from transfected HEK 293T cells, anti HIS blot. Here is the method:
(§1) In order to explore whether TRAF2 binds to SIVA2, FLAG tagged TRAF2 was immuno-precipitated from transfected […] cells using anti-FLAG M2 beads. TRAF2 was eluted from the beads using FLAG peptide. The eluted FLAG tagged TRAF2 was incubated with recombinant (bacterially expressed) GST tagged SIVA2 or GST tagged ring finger mutant SIVA2 at 30° C. for one hour in a volume of 50 μl of buffer (30 mM HEPES, pH 7.6, 5 mM MgCl2, 0.2 mM DTT). Next, the binding mix was diluted to 1 ml to attain the following composition −30 mM HEPES, 5 mM MgCl2, 0.2 mM DTT, 150 mM NaCl, 1% Triton X100 and 1 mM EDTA. Immunoprecipitation was carried out with anti-FLAG for TRAF2 and Western blotting analysis was carried out with anti SIVA to detect coprecipitating SIVA. […] The latter was confirmed in the following experiment. HEK 293T cells were co-transfected with 12 ug of HIS-SIVA2 or deletions of SIVA2 lacking the ring finger (SIVA2 1-58 and SIVA 1-81) and FLAG-TRAF2 by calcium phosphate method. 24 hours post transfection; cells were harvested and lysed in 1% Triton containing lysis buffer. TRAF2 was immunoprecipitated using anti FLAG-M2 beads and coprecipitated SIVA2 was probed by Western blotting using anti HIS antibody. Total lysis in FIG. 11D show the expression levels of the proteins. […] (FIG. 11D).

Experiment [2] has as its target T2, NF-κB-inducing kinase, NIK, (MAP3K14) (human, UniProt Q99558 1-947).
T2 construct: in yeast two-hybrid used as bait fusion; also called myc-NIK; wild type NIK
Description: co-immunoprecipitation from transfected cells (deletion analysis).

Experiment [3] addresses T2, NF-κB-inducing kinase, NIK, (MAP3K14). Description: yeast two-hybrid, human bone-marrow library, NIK as bait. The method, then:
Yeast two-hybrid screening: The system used for screening was the Matchmaker version III (clontech). The prey was pre-transformed human bone marrow library (cat# HY4053AH) that offers high stringent quadruple drop out (QDO) selection along with a-gal assay. Clones growing on plates without LEU, TRP, HIS and ADE were reconfirmed by a-gal assay, which is much more specific than the usual, often leaky, b-gal assay. Plasmids of the positive clones were prepared as follows. Single clones were inoculated into QDO liquid broth and grown overnight at 37° C. Cells were pelleted at 10,000 g and resuspended in 200 μl of buffer containing 2% Triton X-100, 1% SDS, 100 mM NaCl, 10 mM Tris pH8.0, and 1 mM EDTA. The lysates were vortexed for 2 min after adding 200 μl of phenol: chloroform: isoamyl alcohol (25:24:1) and 0.3 g of 600 microns acid washed glass beads (Sigma). Supernatant was collected by centrifugation at 12,000 g and the DNA was precipitated by sodium acetate/ethanol precipitation method (Sambrook et al., 1989). Encoded inserts from the plasmids were amplified by PCR with the primers specific for the library vector pACT2. For further biochemical analysis of individual clones, the amplicons were directly cloned into the N-terminally HIS tagged mammalian expression vector pcDNA3.1 (Invitrogen).

Experiment [4] has as its target T1, FLAG tagged TRAF2. Description: in vitro incubation of eluted FLAG TRAF2 with bacterial GST tagged SIVA2, anti-FLAG IP, anti SIVA blot. Here is the method:
as §1

T2 sequence (Q99558 whole entry, the tested form may be a part): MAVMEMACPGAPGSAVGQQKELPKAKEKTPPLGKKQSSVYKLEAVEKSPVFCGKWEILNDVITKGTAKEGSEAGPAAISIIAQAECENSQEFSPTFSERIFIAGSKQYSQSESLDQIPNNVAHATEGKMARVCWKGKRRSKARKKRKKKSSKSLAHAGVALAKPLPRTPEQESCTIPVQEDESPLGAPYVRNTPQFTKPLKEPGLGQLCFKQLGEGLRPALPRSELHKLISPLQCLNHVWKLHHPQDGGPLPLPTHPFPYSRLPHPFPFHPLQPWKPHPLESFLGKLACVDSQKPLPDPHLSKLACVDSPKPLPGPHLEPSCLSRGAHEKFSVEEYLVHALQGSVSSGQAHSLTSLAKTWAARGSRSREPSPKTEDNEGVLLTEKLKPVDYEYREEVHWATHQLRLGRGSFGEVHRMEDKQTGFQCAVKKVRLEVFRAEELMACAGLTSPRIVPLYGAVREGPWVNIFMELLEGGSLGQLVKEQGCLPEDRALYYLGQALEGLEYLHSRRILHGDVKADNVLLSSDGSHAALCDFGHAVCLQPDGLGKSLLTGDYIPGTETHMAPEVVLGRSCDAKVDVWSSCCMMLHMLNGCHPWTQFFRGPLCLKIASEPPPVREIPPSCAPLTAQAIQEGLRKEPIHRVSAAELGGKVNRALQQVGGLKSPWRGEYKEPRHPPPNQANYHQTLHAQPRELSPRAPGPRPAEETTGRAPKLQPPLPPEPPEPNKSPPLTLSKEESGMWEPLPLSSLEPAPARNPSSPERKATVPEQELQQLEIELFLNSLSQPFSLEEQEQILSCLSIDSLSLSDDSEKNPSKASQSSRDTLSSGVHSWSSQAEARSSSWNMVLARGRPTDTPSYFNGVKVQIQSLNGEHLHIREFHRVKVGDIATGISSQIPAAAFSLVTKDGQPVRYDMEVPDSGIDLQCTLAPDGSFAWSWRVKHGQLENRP

B1: SIVA2 1-58 (other)
chain: MPKRSCPFADVAPLQLKVRVSQRELSRGVCAERYSQEVFDPSGVASIACSSCVRAVDG
modifications: cysteine pairing not given here; also: His tag, sequence and position not given here
notes: HIS tagged deletion mutant lacking ring and zinc fingers; also called SIVA 1-58; SIVA2 N-terminus
Regarding B1, the binding result in experiment [1] and in experiment [2] was “no binding” throughout.

B2: SIVA-C (C-terminal part of SIVA, amino acids 123-175 in SIVA1 or 58-110 in SIVA2) (other)
chain: KAVCGQCERALCGQCVRTCWGCGSVACTLCGLVDCSDMYEKVLCTSCAMFET
notes: Prey fragment from a human bone marrow two-hybrid library; in mammalian cells HIS tagged; also called SIVA-C terminus; C-terminal fragment of SIVA
With B2, the binding result in experiment [3] is recorded as “binds”.

B3: GST-SIVA2 (bacterially expressed GST tagged SIVA2) (other)
chain: MPKRSCPFADVAPLQLKVRVSQRELSRGVCAERYSQEVFDPSGVASIACSSCVRAVDGKAVCGQCERALCGQCVRTCWGCGSVACTLCGLVDCSDMYEKVLCTSCAMFET
notes: Cloned into pGEX and expressed in BL-21 cells; also called recombinant GST-SIVA; recombinant SIVA2; not shown: glutathione S-transferase tag of the pGEX vector
Turning to B3, the binding result in experiment [4] is on record as “binds”.
